# Reference: the supplement of paper PMC10567573
# Test: protein stability index of a GFP-peptide fusion (GPS, HEK-293T) (PSI 1-6); higher = more stable
# Conditions: parent: NP_002788.1; c terminus: native
# 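Note: lentivirally expressed fusion library, cells FACS-sorted into six equal-sized GFP/DsRed ratio bins, PSI computed from sequencing read fractions per bin weighted by bin number.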
row,Protein,protein stability index
1,DGWIRVSSDNVADLHEKYSGSTPN [PSMB5 addN],4.04
2,DGWIRVSSDNVADLHEKYSGSTPV [PSMB5 addV],4.27

# Same assay, conditions: parent: NP_006221.1; c terminus: native
row,Protein,protein stability index
1,CQPISFSGFGAEDDDLGGLGLGPN [POLD2 addN],1.99
2,CQPISFSGFGAEDDDLGGLGLGPV [POLD2 addV],3

# Same assay, conditions: parent: NP_009172.2; c terminus: native
row,Protein,protein stability index
1,LPALFTDLYSQEITAEEAREALPN [SNF8 addN],4.75
2,LPALFTDLYSQEITAEEAREALPV [SNF8 addV],3.9

# Same assay, conditions: parent: NP_015628.1; c terminus: native
row,Protein,protein stability index
1,EQRNSRWNTVLRAVKAKTHHLEPN [TRPA1 addN],4.57
2,EQRNSRWNTVLRAVKAKTHHLEPV [TRPA1 addV],4.23

# Same assay, conditions: parent: NP_116010.1; c terminus: native
row,Protein,protein stability index
1,HSLRAVSTDPPHHDHHDEFCLMPN [BEX2 addN],4.18
2,HSLRAVSTDPPHHDHHDEFCLMPV [BEX2 addV],3.68
